Source: patent publication US20230265217A1 (published 2023)

B1: 3-31 (VHH)
VHH: EVQLVESGGGLVQPGGSLRLSCAASGSTFSINAMGWFRQAPGKEREFVAGITSSGGYTNYADSVKGRFTISADNSKNTAYLQMNSLKPEDTAVYYCAADGVPEYSDYASGPVWGQGTLVTVSS
B2: 6A-3 (VHH)
VHH: EVQLVESGGGLVQPGGSLRLSCAASGFTFSPSWMGWFRQAPGKEREFVATINEYGGRNYADSVKGRFTISADNSKNTAYLQMNSLKPEDTAVYYCARVDRDFDYWGQGTLVTVSS

Target: SARS-CoV-2 S protein trimer (Delta B.1.617.2 India variant) [SPN-C52He] (SARS-CoV-2, UniProt P0DTC2 16-1213)
Assay: SPR

Row | Binder | Kd
1 | B1 | < 16 pM
2 | B2 | 449 pM
